Tested on: MC38 tumor cells
Test: MC38 tumor model, IFNα and IL-12 fusion proteins (Example 27C)
Format: in vivo, C57BL/6 mice
Settings: ACP31 33-330 μg, ACP11 17.5-525 μg, ACP04 2 and 10 μg
Experimental: The MC38 cell line, a rapidly growing colon adenocarcinoma cell line that expresses MMP9 in vitro, was used. Using this tumor model, the ability of fusion proteins to affect tumor growth was examined.
Mice were anaesthetized with isoflurane for implant of cells to reduce the ulcerations. 308 CR female C57BL/6 mice were set up with 5×10^5 MC38 tumor cells in 0% Matrigel sc in flank. Cell Injection Volume was 0.1 mL/mouse. Mouse age at start date was 8 to 12 weeks. Pair matches were performed when tumors reach an average size of 100-150 mm^3 and begin treatment. Body weights were taken at initiation and then biweekly to the end. Caliper measurements were taken biweekly to the end. Any adverse reactions were to be reported immediately. […] Within a group with >20% weight loss, individuals hitting the individual body weight loss endpoint were euthanized. If the group treatment related body weight loss is recovered to within 10% of the original weights, dosing resumed at a lower dose or less frequent dosing schedule. Exceptions to non-treatment body weight % recovery were allowed on a case-by-case basis. […] Animals were monitored individually. […]
No compounds in salt form were used. […] The amount needed per week was calculated, aliquoted accordingly, and stored at −20 C. […]
For ACP11, ACP31, ACP131, the amount needed per week was calculated, aliquoted accordingly, and stored at −20 C. […]

B1: ACP04: human p40-murine p35-6xHis (protein)
chain: IWELKKDVYVVELDWYPDAPGEMVVLTCDTPEEDGITWTLDQSSEVLGSGKTLTIQVKEFGDAGQYTCHKGGEVLSHSLLLLHKKEDGIWSTDILKDQKEPKNKTFLRCEAKNYSGRFTCWWLTTISTDLTFSVKSSRGSSDPQGVTCGAATLSAERVRGDNKEYEYSVECQEDSACPAAEESLPIEVMVDAVHKLKYENYTSSFFIRDIIKPDPPKNLQLKPLKNSRQVEVSWEYPDTWSTPHSYFSLTFCVQVQGKSKREKKDRVFTDKTSATVICRKNASISVRAQDRYYSSSWSEWASVPCSGGGGSGGGGSGGGGSRVIPVSGPARCLSQSRNLLKTTDDMVKTAREKLKHYSCTAEDIDHEDITRDQTSTLKTCLPLELHKNESCLATRETSSTTRGSCLPPQKTSLMMTLCLGSIYEDLKMYQTEFQAINAALQNHNHQQIILDKGMLVAIDELMQSLNHNGETLRQKPPVGEADPYRVKMKLCILLHAFSTRVVTINRVMGYLSSAHHHHHH
- Tumor volume over time: tumor volume decreasing over time in a dose-dependent manner

From patent publication US11739132B2, “Separation moieties and methods of use thereof” (Werewolf Therapeutics, Inc., priority 2019, dated 2023)
